One data set concerns JFH-1 HCVcc-Luc. On the procedure:
FIGS. 1A-1C. […] (A) Schematic illustration of apoE protein domains and the amino acid sequences of hEP and mEP peptides. The amino acid sequences shown are hEP-1 (SEQ ID NO: 6) and mEP (SEQ ID NO: 20). […] Huh7.5.1 cells were infected with JFH-1 HCVcc-Luc (MOI˜0.5) in the presence of hEP or mEP for 2 hours. After removal of virus and peptides, cells were further incubated for 48 hours prior to luciferase assay. Data are presented as % inhibition relative to control infections in which cells were treated with DMSO (0%). Results are expressed as mean±standard deviation (s.d.) (n=3). (C). Huh7.5.1 cells were treated with hEP or DMSO at indicated doses for 48 hours. The effect of hEP on cell viability was measured by a CellTiter Glo assay kit.
FIGS. 7A-7E. Mapping the anti-viral activity of hEP. In (A) and (B), HCVcc-luc was first mixed with indicated peptides (20 μg/ml, 2.7 μM) and then incubated with Huh7.5.1 cells for two hours at 37° C. to initiate infection. After additional 48 hours incubation, luciferase activity was measured. Results are presented as fold of inhibition relative to infections containing DMSO (n=5, mean±sd). (C) 20 μg of hEP-2 or hEP-2/ΔCys were resuspended in PBS and kept at room temperature for 30 minutes. Peptides were then mixed with 2×SDS-sample buffer without DTT and boiled for 5 minutes. Alternatively, samples were simply left unboiled or mixed with sample buffer containing DTT (2 mM). Peptide samples were then subjected to electrophoresis on a 16% tricine non-reducing gel (Invitrogen). […] (D) and (E) Mass spectrometric analysis of hEP-2 or hEP-2/ΔCys.
Detailed procedures involving the production and use of HCVpp and HCVcc have been published elsewhere (Liu et al., J Virol 2009; 83:2011-2014; Yang et al., Hepatology 2008; 48:1396-1403; Yang et al., J Biol Chem 2008; 283:8643-8653). Production procedure of HCVcc expressing firefly luciferase that was inserted between NS5A and NS5B (JFH-1 strain) was described elsewhere (Liu et al., Virology 2010; 407:160-170). Unless otherwise indicated, viruses were typically added to cells for two hours before removal. Cells were incubated for additional 48 hours followed by luciferase assay. When purification was needed, HCVcc were subjected to ultracentrifugation (SW41, 28,000×g) for 4 hours through a 20% sucrose cushion. Deidentified human sera, collected from five patients containing high-titer HCV (HCVser), were obtained.

Data set [1] in a line: DMPC binding assay (turbidity OD490nm). On the procedure: FIGS. 3A-3C. Both hEP and mEP mediate plasma cholesterol clearance through hepatic lipoprotein receptors. (A) DMPC binding assay was conducted as described in the examples section. The turbidity of DMPC vesicle solution was monitored by OD490 nm. The curves were representative of two independent experiments. (B) HEK293T cells were loaded with DiI-LDL (5 μg/ml) along with apoE peptide-DMPC particles which competed with DiI-LDL for LDLR binding and LDLR-mediated endocytosis (for 30 min) n=3 for each group. (C) Each peptide (100 μg in 100 μl PBS) was retro-orbitally injected into 6-month-old apoE−/− mice (two mice each group). PBS (100 μl) was injected into two other mice as control. Before (set as 0 min time point) and 5 min, 30 min, 1 h, 2 h, and 4 h after the peptide or PBS injection, 30 μl blood samples were drawn for plasma cholesterol measurement using total Cholesterol Reagent Kit (Raichem, San Diego, Calif.).
1,2-dimyristoyl-sn-glycero-3-phosphatidylcholine (DMPC) (Avanti Polar Lipids Inc., Alabaster, Ala.) was dissolved in chloroform: methanol (3:1, v/v). It was dried thoroughly under a stream of N2. The dried lipid sample was dispersed in pre-warmed buffer (10 mM Tris-HCl, pH7.2; 150 mM NaCl; 0.5 mM EDTA) to final lipid concentration of 10 mg/ml, vortexed for 1 min, and sonicated 10 times at lowest power for 10 seconds at 24° C. The peptide solution, lipid solution and buffer were all maintained at 23.9° C. One milliliter buffer and 250 μg (25 μl lipid solution) were added in a quartz cuvette, and let equilibrate for 10 min, resulting in a turbid DMPC vesicle solution. Peptide solution (250 μg in 100 μl) was then added to turbid solution in the cuvette, the solution was mixed immediately, and the change of turbidity was monitored by OD at 490 nm as a function of time. If the peptide binds to DMPC vesicles, the large DMPC vesicles will be transformed into smaller DMPC-peptide particles, reducing the turbidity of the solution.

Another data set relates to HCVcc-luc. The data set is described as follows: Anti-HCV activity after pre-incubation of the peptide in cell culture. The class given is cell-based, Hepatitis C virus. Conditions: 20 μg/ml, 24 hours in culture before HCVcc-luc.

Like-named read-outs stand apart in the source and are kept apart here.

In the data set with JFH-1 HCVcc-Luc (HCVcc infection of Huh7.5.1 cells), “EELRVRLASHLRKLRKRLLRDADDLQKRLAVYEEQAQQIRLQAEAFQARLKSWFEPLVEDM [hEP-1]” returned an IC50 of 670 nM. Also, the DMPC binding entry in data set [1] (reduction (percentage) of turbidity (OD490nm) of DMPC solution, plateau 10 minutes after addition of peptide) is given as “+ (+, reduction 25-50%)”.

B1: hEP: human apoE dual-domain peptide: helix 4 of N-terminal domain plus major lipid-binding region; expressed in bacteria (protein)
peptide: EELRVRLASHLRKLRKRLLRDADDLQKRLAVYEEQAQQIRLQAEAFQARLKSWFEPLVEDM
Regarding B1, the IC50 in the data set on JFH-1 HCVcc-Luc (read-out: 50% inhibitory concentration (IC50) of HCVcc infection, JFH-1 HCVcc-Luc MOI~0.5, peptide present 2 hours, luciferase after 48 hours) was determined as 670 nM. Moreover, in the data set on JFH-1 HCVcc-Luc (various MOIs), the “Suppression of HCVcc infection at various MOIs” value is on record as “robustly suppressed”. Besides, in the data set with HCVcc-luc, the “Anti-HCV activity after being left in the culture” value was “largely retained”. Further, in data set [1] (DMPC vesicles, turbidity), the “Binding to DMPC (in words)” value is “efficiently bound”.

For the origin of these results see patent US10125184B2, “Apolipoprotein E polypeptides and their use” (priority 2011, dated 2018).
